Laboratory results as given in patent US20200283521A1 (GRANULAR THERAPEUTICS, published 2020).

Key:
Experiment in all cases: direct ELISA on coated protein, IgG1
hCMET-Fc = biological target: T1, hCMET-Fc (The natural ectodomain is cleaved by furin after residue 307 into disulfide-linked alpha and beta chains. It is given here as one continuous stretch.)
T1 construct: member of the panel m9
T1 chain: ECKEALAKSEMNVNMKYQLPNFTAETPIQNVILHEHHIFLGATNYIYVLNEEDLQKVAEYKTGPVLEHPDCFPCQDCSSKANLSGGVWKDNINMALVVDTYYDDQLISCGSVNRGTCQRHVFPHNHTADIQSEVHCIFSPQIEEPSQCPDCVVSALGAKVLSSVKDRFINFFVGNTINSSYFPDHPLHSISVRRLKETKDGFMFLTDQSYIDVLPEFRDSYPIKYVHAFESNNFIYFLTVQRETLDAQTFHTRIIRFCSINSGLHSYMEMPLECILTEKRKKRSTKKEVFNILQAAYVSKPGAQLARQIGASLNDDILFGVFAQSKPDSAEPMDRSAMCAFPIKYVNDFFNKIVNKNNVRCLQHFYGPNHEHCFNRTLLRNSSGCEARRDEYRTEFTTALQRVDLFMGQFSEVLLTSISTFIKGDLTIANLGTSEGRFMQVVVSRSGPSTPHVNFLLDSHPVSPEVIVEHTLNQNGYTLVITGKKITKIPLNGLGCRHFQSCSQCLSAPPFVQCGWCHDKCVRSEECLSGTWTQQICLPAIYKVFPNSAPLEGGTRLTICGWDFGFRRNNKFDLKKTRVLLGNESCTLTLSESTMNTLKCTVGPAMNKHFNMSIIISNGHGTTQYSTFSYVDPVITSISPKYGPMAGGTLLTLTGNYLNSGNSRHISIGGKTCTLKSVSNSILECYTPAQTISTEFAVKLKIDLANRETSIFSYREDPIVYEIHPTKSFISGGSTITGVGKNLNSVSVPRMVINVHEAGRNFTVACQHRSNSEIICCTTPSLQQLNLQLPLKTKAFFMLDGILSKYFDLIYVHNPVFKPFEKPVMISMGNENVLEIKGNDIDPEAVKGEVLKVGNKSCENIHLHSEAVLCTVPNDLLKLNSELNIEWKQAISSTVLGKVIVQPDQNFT

hLTBR-Fc = biological target: T2, hLTBR-Fc (human, UniProt P36941)
T2 construct: Fc fusion; member of the panel m9

hVCAM-Fc = biological target: T3, hVCAM-Fc
T3 construct: member of the panel m9
T3 chain: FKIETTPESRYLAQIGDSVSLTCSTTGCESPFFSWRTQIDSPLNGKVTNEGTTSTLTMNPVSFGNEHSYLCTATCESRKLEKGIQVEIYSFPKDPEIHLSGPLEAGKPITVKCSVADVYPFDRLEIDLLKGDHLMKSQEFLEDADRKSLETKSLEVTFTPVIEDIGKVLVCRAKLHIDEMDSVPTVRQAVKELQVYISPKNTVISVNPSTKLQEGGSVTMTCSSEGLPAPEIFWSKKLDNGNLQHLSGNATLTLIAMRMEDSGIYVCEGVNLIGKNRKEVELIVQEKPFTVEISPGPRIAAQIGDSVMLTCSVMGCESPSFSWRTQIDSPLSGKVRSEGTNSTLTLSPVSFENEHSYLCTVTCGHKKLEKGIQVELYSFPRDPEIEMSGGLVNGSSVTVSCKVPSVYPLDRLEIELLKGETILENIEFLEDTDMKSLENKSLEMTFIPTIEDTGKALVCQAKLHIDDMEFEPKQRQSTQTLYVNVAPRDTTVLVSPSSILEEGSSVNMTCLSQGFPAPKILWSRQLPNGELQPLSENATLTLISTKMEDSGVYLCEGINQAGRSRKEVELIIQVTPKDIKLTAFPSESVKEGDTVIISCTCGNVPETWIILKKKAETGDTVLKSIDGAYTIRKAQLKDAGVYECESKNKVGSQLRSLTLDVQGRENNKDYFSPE

hDR3-Fc = biological target: T4, hDR3-Fc (human, UniProt Q93038)
T4 construct: Fc fusion; member of the panel m9
T4 sequence (looked up): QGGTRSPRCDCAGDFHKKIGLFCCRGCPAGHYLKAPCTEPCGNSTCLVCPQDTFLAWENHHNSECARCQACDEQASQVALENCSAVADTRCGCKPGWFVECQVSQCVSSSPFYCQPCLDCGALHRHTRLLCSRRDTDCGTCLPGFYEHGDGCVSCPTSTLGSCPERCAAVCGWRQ

hCD4 = biological target: T5, hCD4 (human, UniProt P01730)
T5 construct: purified recombinant protein; member of the panel m9

hBAFFR-Fc = biological target: T6, hBAFFR-Fc (human, UniProt Q96RJ3)
T6 construct: Fc fusion; member of the panel m9

hICAM-1-Fc = biological target: T7, hICAM-1-Fc (human, UniProt P05362)
T7 construct: Fc fusion; member of the panel m9

hDR6-Fc = biological target: T8, hDR6-Fc (human, UniProt O75509)
T8 construct: Fc fusion; member of the panel m9
T8 sequence (looked up): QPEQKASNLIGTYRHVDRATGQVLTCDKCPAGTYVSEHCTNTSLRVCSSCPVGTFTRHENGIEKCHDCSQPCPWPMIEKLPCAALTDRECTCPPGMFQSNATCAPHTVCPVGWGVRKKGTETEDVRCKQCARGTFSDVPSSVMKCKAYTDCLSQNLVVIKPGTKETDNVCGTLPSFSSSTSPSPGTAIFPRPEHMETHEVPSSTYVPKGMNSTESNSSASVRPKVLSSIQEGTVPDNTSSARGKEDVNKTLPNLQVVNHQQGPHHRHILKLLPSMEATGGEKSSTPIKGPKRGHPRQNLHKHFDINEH

hTWEAK-Fc = biological target: T9, hTWEAK-Fc (human, UniProt O43508)
T9 construct: Fc fusion; member of the panel m9
T9 sequence (looked up): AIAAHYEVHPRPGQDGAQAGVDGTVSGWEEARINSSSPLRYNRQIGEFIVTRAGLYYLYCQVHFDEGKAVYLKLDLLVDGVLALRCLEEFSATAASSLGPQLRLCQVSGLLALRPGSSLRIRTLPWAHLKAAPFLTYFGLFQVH

hOX40-Fc = biological target: T10, hOX40-Fc
T10 construct: member of the panel m9
T10 chain: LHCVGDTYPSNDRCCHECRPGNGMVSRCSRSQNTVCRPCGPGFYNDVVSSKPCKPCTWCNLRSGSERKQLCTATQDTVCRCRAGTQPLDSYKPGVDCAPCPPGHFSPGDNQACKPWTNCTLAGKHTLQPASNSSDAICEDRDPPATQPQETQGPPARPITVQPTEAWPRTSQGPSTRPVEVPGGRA

Measured: binding result

T6 sequence (Q96RJ3 7-71 limits assumed): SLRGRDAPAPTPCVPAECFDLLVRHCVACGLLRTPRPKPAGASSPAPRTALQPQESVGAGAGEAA
T2 sequence (P36941 28-227 limits assumed): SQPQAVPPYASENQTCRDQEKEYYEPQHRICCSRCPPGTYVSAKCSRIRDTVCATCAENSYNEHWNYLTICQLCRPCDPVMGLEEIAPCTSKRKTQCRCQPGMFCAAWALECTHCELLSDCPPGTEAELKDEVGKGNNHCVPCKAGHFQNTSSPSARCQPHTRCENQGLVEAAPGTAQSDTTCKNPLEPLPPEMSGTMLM
T7 sequence (P05362 28-480 limits assumed): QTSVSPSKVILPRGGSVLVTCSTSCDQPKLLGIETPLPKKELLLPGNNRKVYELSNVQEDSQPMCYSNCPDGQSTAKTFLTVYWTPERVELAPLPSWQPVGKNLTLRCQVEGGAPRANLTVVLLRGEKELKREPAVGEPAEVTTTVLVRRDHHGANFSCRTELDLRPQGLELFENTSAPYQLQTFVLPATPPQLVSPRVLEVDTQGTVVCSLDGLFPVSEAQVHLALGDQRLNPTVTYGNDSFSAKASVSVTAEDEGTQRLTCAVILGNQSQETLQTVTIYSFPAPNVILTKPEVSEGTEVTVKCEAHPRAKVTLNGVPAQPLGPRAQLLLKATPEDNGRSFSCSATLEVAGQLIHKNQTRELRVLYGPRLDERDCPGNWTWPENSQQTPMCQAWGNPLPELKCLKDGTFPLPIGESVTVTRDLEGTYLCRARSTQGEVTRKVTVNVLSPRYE

B1: MH5, human IgG1 (antibody, V domains shown)
VH: QVQLVQSGAEVKKPGASVKVSCKASGYTFTDYYMNWVRQAPGQGLEWMGRIYPGSGNTYYAQKFQGRVTMTRDTSTSTVYMELSSLRSEDTAVYYCARGVYYYDYWGQGTLVTVSS
VL: DIQMTQSPSSLSASVGDRVTITCRASQGIRTNLAWFQQKPGKAPKSLIYSASSLQSGVPSRFSGSGSGTDFTLTISSLQPEDFATYYCQQYANYPRTFGGGTKVEIK
notes: IgG1; also called C-KIT-MH5; C-KIT-MHS
not listed: hTWEAK-Fc | hOX40-Fc
no binding (tested: 1 µg/ml): all other assays above

B2: MH5.22 (antibody, IgG1, V domains shown)
VH: QVQLVQSGAEVKKPGASVKVSCKASGYTFTDFYMNWVRQAPGQGLEWMGRIYPASGNTYYAQKFQGRVTMTRDTSTSTVYMELSSLRSEDTAVYYCARGVWYYDYWGQGTLVTVSS
VL: DIQMTQSPSSLSASVGDRVTITCRASQGIRTNLAWFQQKPGKAPKSLIYAASSLQSGVPSRFSGSGSGTDFTLTISSLQPEDFATYYCQQYANYPRTFGGGTKVEIK
notes: IgG1; also called C-KIT-MH5.22
no binding (tested: 1 µg/ml): hTWEAK-Fc | hOX40-Fc
